Test results as given in PMC9958131 (Nature Communications, 2023).

Test system: PAD2 and PAD4
Assay: Citrullination site mapping of fibrinogen and vimentin by trypsin digestion and mass spectrometry (protein-level sheet, one search over native, PAD2-cit and PAD4-cit samples)
Assay type: biochemical, human
Conditions: modified residues found per protein; Deamidated [R..] = deamidated (citrullinated) arginine positions; trypsin digest, Sequest HT; not split by sample (native, PAD2-citrullinated, PAD4-citrullinated fibrinogen and vimentin)
Description: Description: Raw mass spectrometry data for proteolytic mapping of fibrinogen, vimentin, and hnRNP A2/B1 by cathepsins B, S, and H (sheets 1-6); citrullination site mapping of fibrinogen and vimentin by trypsin digestion (sheets 7-8); and the natural antigen processing assay with native, PAD2-citrullinated (PAD2-cit), and PAD4-citrullinated (PAD4-cit) fibrinogen (sheets 9-11).

| Molecule | Modifications |
| --- | --- |
| P12035 (protein, UniProt P12035 1-628, looked up, full-length) MSRQASKTSGGGSQGFSGRSAVVSGSSRMSCVAHSGGAGGGAYGFRSGAGGFGSRSLYNLGGNKSISISVAAGGSRAGGFGGGRSSCAFAGGYGGGFGSGYGGGFGGGFGGGRGMGGGFGGAGGFGGAGGFGGAGGFGGPGGFGGSGGFGGPGSLGSPGGFGPGGFPGGIQEVTINQSLLQPLNVEIDPQIGQVKAQEREQIKTLNNKFASFIDKVRFLEQQNKVLETKWNLLQQQGTSSISGTNNLEPLFENHINYLRSYLDNILGERGRLDSELKNMEDLVEDFKKKYEDEINKRTAAENEFVTLKKDVDSAYMNKVELQAKVDALIDEIDFLRTLYDAELSQMQSHISDTSVVLSMDNNRSLDLDSIIAEVRAQYEDIAQRSKAEAEALYQTKLGELQTTAGRHGDDLRNTKSEIIELNRMIQRLRAEIEGVKKQNANLQTAIAEAEQHGEMALKDANAKLQELQAALQQAKDDLARLLRDYQELMNVKLALDVEIATYRKLLEGEEYRMSGECPSAVSISVVSSSTTSASAGGYGGGYGGGMGGGLGGGFSAGGGSGSGFGRGGGGGIGGGFGGGSSGFSGGSGFGSISGARYGVSGGGFSSASNRGGSIKFSQSSQSSQRYSR | Deamidated [R217] |
| P00488 (protein) MSETSRTAFGGRRAVPPNNSNAAEDDLPTVELQGVVPRGVNLQEFLNVTSVHLFKERWDTNKVDHHTDKYENNKLIVRRGQSFYVQIDFSRPYDPRRDLFRVEYVIGRYPQENKGTYIPVPIVSELQSGKWGAKIVMREDRSVRLSIQSSPKCIVGKFRMYVAVWTPYGVLRTSRNPETDTYILFNPWCEDDAVYLDNEKEREEYVLNDIGVIFYGEVNDIKTRSWSYGQFEDGILDTCLYVMDRAQMDLSGRGNPIKVSRVGSAMVNAKDDEGVLVGSWDNIYAYGVPPSAWTGSVDILLEYRSSENPVRYGQCWVFAGVFNTFLRCLGIPARIVTNYFSAHDNDANLQMDIFLEEDGNVNSKLTKDSVWNYHCWNEAWMTRPDLPVGFGGWQAVDSTPQENSDGMYRCGPASVQAIKHGHVCFQFDAPFVFAEVNSDLIYITAKKDGTHVVENVDATHIGKLIVTKQIGGDGMMDITDTYKFQEGQEEERLALETALM | Deamidated [R6; R202; R675; R697]; Met-loss+Acetyl [N-Term] |
| F5GXS0 (protein) MRLLWGLIWASSFFTLSLQKPRLLLFSPSVVHLGVPLSVGVQLQDVPRGQVVKGSVFLRNPSRNNVPCSPKVDFTLSSERDFALLSLQVPLKDAKSCGLHQLLRGPEVQLVAHSPWLKDSLSRTTNIQGINLLFSSRRGHLFLQTDQPIYNPGQRVRYRVFALDQKMRPSTDTITVMVENSHGLRVRKKEVYMPSSIFQDDFVIPDISEPGTWKISARFSDGLESNSSTQFEVKKYVLPNFEVKITPGKPYILTVPGHLDEMQLDIQARYIYGKPVQGVAYVRFGLLDEDGKKTFFRGLESQTKLVNGQSHISLSKAEFQDALEKLNMGITDLQGLRLYVAAAIIESPGGEMEEAELTSWYFVSSPFSLDLSKTKRHLVPGAPFLLQALVREMSGSPASGIPVKVSATVSSPGSVPEVQDIQQNTDGSGQVSIPIIIPQTISELQLSVSAGSPHPAIARLTVAAPPSGGPGFLSIERPDSRPPRVGDTLNLNLRAVGSGA | Deamidated [R123; R1126] |
| A0A140TA32 (protein) MRLLWGLIWASSFFTLSLQKPRLLLFSPSVVHLGVPLSVGVQLQDVPRGQVVKGSVFLRNPSRNNVPCSPKVDFTLSSERDFALLSLQVPLKDAKSCGLHQLLRGPEVQLVAHSPWLKDSLSRTTNIQGINLLFSSRRGHLFLQTDQPIYNPGQRVRYRVFALDQKMRPSTDTITVMVENSHGLRVRKKEVYMPSSIFQDDFVIPDISEPGTWKISARFSDGLESNSSTQFEVKKYVLPNFEVKITPGKPYILTVPGHLDEMQLDIQARYIYGKPVQGVAYVRFGLLDEDGKKTFFRGLESQTKLVNGQSHISLSKAEFQDALEKLNMGITDLQGLRLYVAAAIIEYPGGEMEEAELTSWYFVSSPFSLDLSKTKRHLVPGAPFLLQALVREMSGSPASGIPVKVSATVSSPGSVPEVQDIQQNTDGSGQVSIPIIIPQTISELQLSVSAGSPHPAIARLTVAAPPSGGPGFLSIERPDSRPPRVGDTLNLNLRAVGSGA | Deamidated [R123] |
| Q02413 (protein, UniProt Q02413 1-1049, looked up, full-length) MDWSFFRVVAMLFIFLVVVEVNSEFRIQVRDYNTKNGTIKWHSIRRQKREWIKFAAACREGEDNSKRNPIAKIHSDCAANQQVTYRISGVGIDQPPYGIFVINQKTGEINITSIVDREVTPFFIIYCRALNSMGQDLERPLELRVRVLDINDNPPVFSMATFAGQIEENSNANTLVMILNATDADEPNNLNSKIAFKIIRQEPSDSPMFIINRNTGEIRTMNNFLDREQYGQYALAVRGSDRDGGADGMSAECECNIKILDVNDNIPYMEQSSYTIEIQENTLNSNLLEIRVIDLDEEFSANWMAVIFFISGNEGNWFEIEMNERTNVGILKVVKPLDYEAMQSLQLSIGVRNKAEFHHSIMSQYKLKASAISVTVLNVIEGPVFRPGSKTYVVTGNMGSNDKVGDFVATDLDTGRPSTTVRYVMGNNPADLLAVDSRTGKLTLKNKVTKEQYNMLGGKYQGTILSIDDNLQRTCTGTININIQSFGNDDRTNTEPNTKITTNTGRQESTSSTNYDTSTTSTDSSQVYSSEPGNGAKDLLSDNVHFGPAGIGLLIMGFLVLGLVPFLMICCDCGGAPRSAAGFEPVPECSDGAIHSWAVEGPQPEPRDITTVIPQIPPDNANIIECIDNSGVYTNEYGGREMQDLGGGERMTGFELTEGVKTSGMPEICQEYSGTLRRNSMRECREGGLNMNFMESYFCQKAYAYADEDEGRPSNDCLLIYDIEGVGSPAGSVGCCSFIGEDLDDSFLDTLGPKFKKLADISLGKESYPDLDPSWPPQSTEPVCLPQETEPVVSGHPPISPHFGTTTVISESTYPSGPGVLHPKPILDPLGYGNVTVTESYTTSDTLKPSVHVHDNRPASNVVVTERVVGPISGADLHGMLEMPDLRDGSNVIVTERVIAPSSSLPTSLTIHHPRESSNVVVTERVIQPTSGMIGSLSMHPELANAHNVIVTERVVSGAGVTGISGTTGISGGIGSSGLVGTSMGAGSGALSGAGISGGGIGLSSLGGTASIGHMRSSSDHHFNQTIGSASPSTARSRITKYSTVQYSK | Deamidated [R416; R607] |
| B1AHL2 (protein) MERAAPSRRVPLPLLLLGGLALLAAGVDADVLLEACCADGHRMATHQKDCSLPYATESKECRAVGLASLCQDLNGAWAVWKVGRASQAEGTASARAQRRGMVQEQCCHSQLEELHCATGISLANEQDRCATPHGDNASLEATFVKRCCHCCLLGRAAQAQGQSCEYSLMVGYQCGQVFQACCVKSQETGDLDVGGLQETDKIIEVEEEQEDPYLNDRCRGGGPCKQQCRDTGDEVVCSCFVGYQLLSDGVSCEDVNECITGSHSCRLGESCINTVGSFRCQRDSSCGTGYELTEDNSCKDIDECESGIHNCLPDFICQNTLGSFRCRPKLQCKSGFIQDALGNCIDINECLSISAPCPIGHTCINTEGSYTCQKNVPNCGRGYHLNEEGTRCVDVDECAPPAEPCGKGHRCVNSPGSFRCECKTGYYFDGISRMCVDVNECQRYPGRLCGHKCENTLGSYLCSCSVGFRLSVDGRSCEDINECSSSPCSQECANVYGSYQ | Deamidated [R217; R219; R325; R327; R381; R391; R505; R623; R643; R671] |
| Fibrinogen b: β chain of human fibrinogen, RA autoantigen; native or citrullinated by PAD2 or PAD4 (protein) MKRMVSWSFHKLKTMKHLLLLLLCVFLVKSQGVNDNEEGFFSARGHRPLDKKREEAPSLRPAPPPISGGGYRARPAKAAATQKKVERKAPDAGGCLHADPDLGVLCPTGCQLQEALLQQERPIRNSVDELNNNVEAVSQTSSSSFQYMYLLKDLWQKRQKQVKDNENVVNEYSSELEKHQLYIDETVNSNIPTNLRVLRSILENLRSKIQKLESDVSAQMEYCRTPCTVSCNIPVVSGKECEEIIRKGGETSEMYLIQPDSSVKPYRVYCDMNTENGGWTVIQNRQDGSVDFGRKWDPYKQGFGNVATNTDGKNYCGLPGEYWLGNDKISQLTRMGPTELLIEMEDWKGDKVKAHYGGFTVQNEANKYQISVNKYRGTAGNALMDGASQLMGENRTMTIHNGMFFSTYDRDNDGWLTSDPRKQCSKEDGGGWWYNRCHAANPNGRYYWGGQYTWDMAKHGTDDGVVWMNWKGSWYSMRKMSMKIRPFFPQQ | Deamidated [R53; R60; R72; R74; R158; R196; R199; R224; R246; R267; R285; R334; R376; R395; R410; R421; R436; R445; R478] |
| Q7Z3Y7 (protein) MSLQFSNGSRHVCLRSGAGSVRPLNGGAGFAGSSACGGSVAGSEFSCALGGGLGSVPGGSHAGGALGNAACIGFAGSEGGLLSGNEKVTMQNLNDRLASYLDNVRALEEANAELERKIKGWYEKYGPGSCRGLDHDYSRYHLTIEDLKNKIISSTTTNANVILQIDNARLAADDFRLKYENELTLHQNVEADINGLRRVLDELTLCRTDQELQYESLSEEMTYLKKNHEEEMKALQCAAGGNVNVEMNAAPGVDLAVLLNNMRAEYEALAEQNRKDAEAWFNEKSASLQQQISHDSGAATFARSQLTEMRRTLQTLEIQLQSLMATKHSLECSLTETESNYCTQLAQIQAQIGALEEQLHQVRTETEGQKLEYEHLLDVKVHLEKEIETYCRLIDGDGNSCSKSKGFGSGSPGNSSKDLSKTTLVKTVVEELDQRGKVLSSRIHSIEEKTSKMTNGKTEQRVPF | Deamidated [R96] |
| Q8N1N4 (protein) MSLSPCRAQRGFSARSACSARSRGRSRGGFSSRGGFSSRSLNSFGGCLEGSRGSTWGSGGRLGVRFGEWSGGPGLSLCPPGGIQEVTINQNLLTPLKIEIDPQFQVVRTQETQEIRTLNNQFASFIDKVRFLEQQNKVLETKWHLLQQQGLSGSQQGLEPVFEACLDQLRKQLEQLQGERGALDAELKACRDQEEEYKSKYEEEAHRRATLENDFVVLKKDVDGVFLSKMELEGKLEALREYLYFLKHLNEEELGQLQTQASDTSVVLSMDNNRYLDFSSIITEVRARYEEIARSSKAEAEALYQTKYQELQVSAQLHGDRMQETKVQISQLHQEIQRLQSQTENLKKQNASLQAAITDAEQRGELALKDAQAKVDELEAALRMAKQNLARLLCEYQELTSTKLSLDVEIATYRRLLEGEECRMSGECTSQVTISSVGGSAVMSGGVGGGLGSTCGLGSGKGSPGSCCTSIVTGGSNIILGSGKDPVLDSCSVSGSSAGS | Deamidated [R130] |
